Laboratory results from article PMC7619409 (Molecular cell, 2024).

T1: Arp6 subunit (yeast, UniProt Q12509 1-438)
T1 construct: Stood in the assay as part of m1
T1 sequence: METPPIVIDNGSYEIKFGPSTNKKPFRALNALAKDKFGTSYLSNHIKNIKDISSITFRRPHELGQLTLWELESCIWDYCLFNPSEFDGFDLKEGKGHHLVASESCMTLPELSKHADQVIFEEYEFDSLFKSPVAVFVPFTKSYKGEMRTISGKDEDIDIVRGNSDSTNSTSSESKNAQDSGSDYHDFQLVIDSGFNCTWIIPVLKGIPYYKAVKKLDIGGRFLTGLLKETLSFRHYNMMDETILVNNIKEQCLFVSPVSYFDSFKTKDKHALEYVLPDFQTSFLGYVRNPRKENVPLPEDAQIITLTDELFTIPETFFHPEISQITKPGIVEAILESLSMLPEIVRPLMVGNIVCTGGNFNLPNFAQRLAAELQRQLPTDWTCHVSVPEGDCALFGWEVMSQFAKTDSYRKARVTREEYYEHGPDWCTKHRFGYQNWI


What was measured:
Assay in all cases: cryo-EM structure; SWR1-hexasome complex, 3.5 Å; SWR1 premixed 1:1 with hexasome, 1 mM ADP:BeF, 25 mM HEPES pH 7.5, 50 mM NaCl, 30°C 10 min, glycerol gradient, no crosslinking
Settings in all cases: both partners purified
Arp6 subunit = molecular target: T1, Arp6 subunit
Swr1 subunit = molecular target: T2, Swr1 subunit (yeast, UniProt Q05471 1-1514)
T2 construct: Stood in the assay as part of m1; also called Swr1 motor domains
T2 sequence (Q05471 whole entry, the tested form may be a part): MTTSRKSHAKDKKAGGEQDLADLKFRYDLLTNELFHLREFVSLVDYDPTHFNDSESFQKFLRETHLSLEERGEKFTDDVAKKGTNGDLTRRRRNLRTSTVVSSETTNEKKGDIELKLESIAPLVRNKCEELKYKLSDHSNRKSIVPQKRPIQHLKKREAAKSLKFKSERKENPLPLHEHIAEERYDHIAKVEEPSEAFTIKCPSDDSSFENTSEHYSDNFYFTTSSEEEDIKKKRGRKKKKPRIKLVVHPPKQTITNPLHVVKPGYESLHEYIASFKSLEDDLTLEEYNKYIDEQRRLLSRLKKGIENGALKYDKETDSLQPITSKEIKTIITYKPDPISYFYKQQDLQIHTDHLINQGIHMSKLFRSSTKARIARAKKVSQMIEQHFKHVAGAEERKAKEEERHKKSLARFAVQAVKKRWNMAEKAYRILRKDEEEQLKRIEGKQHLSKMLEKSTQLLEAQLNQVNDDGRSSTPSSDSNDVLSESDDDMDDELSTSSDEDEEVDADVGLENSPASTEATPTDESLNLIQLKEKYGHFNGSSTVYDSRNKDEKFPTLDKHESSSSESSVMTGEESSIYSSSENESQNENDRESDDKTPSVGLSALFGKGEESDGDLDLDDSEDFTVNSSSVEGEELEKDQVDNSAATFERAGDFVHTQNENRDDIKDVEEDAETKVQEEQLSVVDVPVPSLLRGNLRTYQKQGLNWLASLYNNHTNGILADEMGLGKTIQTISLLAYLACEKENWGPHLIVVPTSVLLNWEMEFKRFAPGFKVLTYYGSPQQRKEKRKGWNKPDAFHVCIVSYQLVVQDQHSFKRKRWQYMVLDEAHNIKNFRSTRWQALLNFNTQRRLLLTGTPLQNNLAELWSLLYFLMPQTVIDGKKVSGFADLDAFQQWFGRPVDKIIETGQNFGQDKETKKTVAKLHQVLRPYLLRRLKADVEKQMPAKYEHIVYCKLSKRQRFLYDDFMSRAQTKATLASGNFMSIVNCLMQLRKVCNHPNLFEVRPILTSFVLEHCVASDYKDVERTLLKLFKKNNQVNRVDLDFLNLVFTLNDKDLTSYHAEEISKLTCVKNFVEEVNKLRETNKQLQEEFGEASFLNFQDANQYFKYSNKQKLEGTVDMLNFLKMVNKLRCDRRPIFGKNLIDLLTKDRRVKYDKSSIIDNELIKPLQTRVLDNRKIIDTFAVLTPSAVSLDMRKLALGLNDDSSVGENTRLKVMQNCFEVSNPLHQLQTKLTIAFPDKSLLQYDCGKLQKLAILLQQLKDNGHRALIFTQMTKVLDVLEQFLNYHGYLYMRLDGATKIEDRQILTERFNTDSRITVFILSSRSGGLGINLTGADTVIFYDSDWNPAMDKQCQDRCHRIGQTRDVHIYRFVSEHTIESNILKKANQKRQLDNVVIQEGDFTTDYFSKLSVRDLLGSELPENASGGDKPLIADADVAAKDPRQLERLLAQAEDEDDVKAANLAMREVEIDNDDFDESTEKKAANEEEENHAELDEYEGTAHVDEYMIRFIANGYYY

S. cerevisiae histone H4 = S. cerevisiae histone H4 (S. cerevisiae, UniProt P02309 1-103)

binding result (Arp6 subunit) | binding result (Swr1 subunit) | binding result (S. cerevisiae histone H4) | Binder
binds | – | – | Swc6 subunit (natural protein, yeast, Stood in the assay as part of m1) MKALVEEIDKKTYNPDIYFTSLDPQARRYTSKKINKQGTISTSRPVKRINYSLADLEARLYTSRSEGDGNSISRQDDRNSKNSHSFEERYTQQEILQSDRRFMELNTENFSDLPNVPTLLSDLTGVPRDRIESTTKPISQTSDGLSALMGGSSFVKEHSKYGHGWVLKPETLREIQLSYKSTKLPKPKRKNTNRIVALKKVLSSKRNLHSFLDSALLNLMDKNVIYHNVYNKRYFKVLPLITTCSICGGYDSISSCVNCGNKICSVSCFKLHNETRCRNR
– | binds | binds | Swc5 subunit (natural protein, yeast, residues 196-303 built in the structure; Stood in the assay as part of m1) MPEVETKIIPNEKEDEDEDGYIEEEDEDFQPEKDKLGGGSDDSDASDGGDDYDDGVNRDKGRNKVDYSRIESESGGLIKTRRARQAEEEYAKTHKYESLTVESIPAKVNSIWEELQEASKNRLLSSSGKVGSVLDGSKEARSTTAAQQEDKILIERNYKFAGETVHEKKWVSRSSAEGQEYLNSLKFKQQAPAAPVQLEKAVRTKSNESRQHLRRPLKRPPLLEQIISGGLRPKLTTLEKSQLDWASYVDRAGLNDELVLHNKDGFLARQEFLQRVGSAEDERYKELRRQQLAQQLQQDSEAS
